{"source": "patent CN109776677A", "about": "(SHANGHAI PHARMEXPLORER COMPANY LTD, dated 2019)", "key": {"[1]": {"biological_target": "免疫原A (his标签重组人IL-13蛋白) (human) (UniProt P35225)", "experiment": "SPR (Biacore), antibody captured on anti-human Fc CM5 chip, immunogen A as analyte, 1:1 global fit"}, "[2]": {"biological_target": "免疫原A (his标签重组人IL-13蛋白) (human) (UniProt P35225)", "experiment": "SPR (Biacore), steps as Example 9"}, "[3]": {"biological_target": "免疫原A (his标签重组人IL-13蛋白) (human) (UniProt P35225)", "experiment": "SPR (Biacore), sentence on the group of 表27"}, "[4]": {"biological_target": "T1, 鼠IL-13 (小鼠 (mouse), UniProt P20109 19-131, limits assumed)", "T1 construct": "Bought protein; also called 小鼠IL-13; 鼠IL-13变体", "T1 sequence (looked up)": "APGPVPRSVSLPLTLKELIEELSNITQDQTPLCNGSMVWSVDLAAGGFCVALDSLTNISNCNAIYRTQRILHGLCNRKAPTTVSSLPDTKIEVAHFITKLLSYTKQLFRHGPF", "experiment": "ELISA, IL-13 at 0.5 μg/mL on streptavidin plate, serially diluted antibody, HRP second antibody"}}, "data": [{"binder": "35E2C3 (antibody, V domains shown, also called 先导抗体; IL-13先导抗体) VH: EVQLQESGPGLAKPSQTLSLTCSVTGYSITSDYWNWIRKFPGNKLEYMGYISYNGNTYYNPSLKSQISITRDTSKNQLYLQLKSATTEDTATYYCARLAKWTWYFDIWGTGTTVTVSS VL: DIQMNQSPSSLSASLGDTITITCHASQNINVWLSWYQQKPGSLPKLLIYKASDLHTGVPSRFSGSGSGTGFTLTISSLQPEDIATYYCQQGQSYPYTFGGGTKLEIK", "values": [{"measurement": "Kd", "setting": "[1]", "value": 0.863, "unit": "nM"}, {"measurement": "koff", "setting": "[1]", "value": 0.00026, "unit": "s⁻¹"}, {"measurement": "kon", "setting": "[1]", "value": 300000, "unit": "M⁻¹ s⁻¹"}, {"measurement": "Kd", "setting": "[2]", "value": 0.86, "unit": "nM"}, {"measurement": "koff", "setting": "[2]", "value": 0.000248, "unit": "s⁻¹"}, {"measurement": "kon", "setting": "[2]", "value": 289000, "unit": "M⁻¹ s⁻¹"}, {"measurement": "Kd", "setting": "[3]", "value": "< 90", "unit": "nM"}, {"measurement": "binding result", "setting": "[4]", "value": "no binding"}]}, {"binder": "c29D9H8 (antibody, V domains shown) VH: QVQLQQSGAELVRPGASVTLSCKASGYTFTDYEMHWVKQTPVHGLEWIGGIDPETGGTASNQKFKGKAILTADKSSSTAYMELRSLTSEDSAVYYCTSGDYFGGGPFAYWGQGTLVTVSA VL: DIKMTQSPSSMYASLGERVTITCKASQDINSYLSWFQQKPGKSPKTLIYRANRLVDGVPSRFSGSGSGQDYSLTISSLDYEDMGIYYCLQYDEFPYTFGGGTKLEIK", "values": [{"measurement": "Kd", "setting": "[1]", "value": 0.0324, "unit": "nM"}, {"measurement": "koff", "setting": "[1]", "value": 0.000813, "unit": "s⁻¹"}, {"measurement": "kon", "setting": "[1]", "value": "2.51e+07", "unit": "M⁻¹ s⁻¹"}, {"measurement": "Kd", "setting": "[2]", "value": 0.0247, "unit": "nM"}, {"measurement": "koff", "setting": "[2]", "value": 0.000962, "unit": "s⁻¹"}, {"measurement": "kon", "setting": "[2]", "value": "3.9e+07", "unit": "M⁻¹ s⁻¹"}, {"measurement": "Kd", "setting": "[3]", "value": "< 90", "unit": "nM"}]}]}
